{
  "source": "patent US20200199081",
  "proteins": {"B1": {"name": "Flag-tagged STK19D89N (protein)", "chain": "MQKWFSAFDDAIIQRQWRANPSRGGGGVSFTKEVDTNVATGAPPRRQRVPGRACPWREPIRGRRGARPGGGDAGGTPGETVRHCSAPENPIFRFSSLHSYPFPGTIKSRDMSWKRHHLIPETFGVKRRRKRGPVESDPLRGEPGSARAAVSELMQLFPRGLFEDALPPIVLRSQVYSLVPDRTVADRQLKELQEQGEIRIVQLGFDLDAHGIIFTEDYRTRVCDCVLKACDGRPYAGAVQKFLASVLPACGDLSFQQDQMTQTFGFRDSEITHLVNAGVLTVRDAGSWWLAVPGAGRFIKYFVKGRQAVLSMVRKAKYRELLLSELLGRRAPVVVRLGLTYHVHDLIGAQLVDCISTTSGTLLRLPET"}, "B2": {"name": "Flag-tagged STK19 wild type (STK19-Flag) (protein)", "chain": "B1 chain with N89D"}, "B3": {"name": "Flag-tagged kinase-dead STK19K317P (protein)", "chain": "B1 chain with N89D, K317P"}},
  "key": {"[1]": {"target": "HA-tagged NRASQ61R (HA-NRASQ61R)"}, "[2]": {"target": "HA-tagged wild-type NRAS (HA-NRASWT)"}},
  "note": "Residue numbers refer to the chain shown, from its start.",
  "data": [
    {"protein": "B1", "values": [
      {"measurement": "in vitro kinase assay, phosphorylation of NRAS", "setting": "[1]", "value": "phosphorylation of purified recombinant NRAS was enhanced by STK19D89N to a higher extent than by STK19WT"},
      {"measurement": "in vitro kinase assay, phosphorylation of NRAS", "setting": "[2]", "value": "phosphorylation of purified recombinant NRAS was enhanced by STK19D89N to a higher extent than by STK19WT"}
    ]},
    {"protein": "B2", "values": [
      {"measurement": "in vitro kinase assay, phosphorylation of NRAS", "setting": "HA-NRASS89A", "value": "mutation of S89 to alanine (S89A) abolished phosphorylation of NRASWT and NRASQ61R"},
      {"measurement": "in vitro kinase assay, phosphorylation of NRAS", "setting": "HA-NRASQ61R/S89A", "value": "mutation of S89 to alanine (S89A) abolished phosphorylation of NRASWT and NRASQ61R"},
      {"measurement": "in vitro kinase assay, NRAS preloaded with GDP, GTP or GTPγS", "setting": "[2]", "value": "a higher STK19-induced phosphorylation of the GTP- and GTPγS-loaded NRAS than GDP-loaded NRAS"},
      {"measurement": "serine phosphorylation of NRAS (immunoblot after NRAS immunoprecipitation, HPMs)", "setting": "[2]", "value": "only a marginal increase in phosphorylation of NRASWT was detected"}
    ]},
    {"protein": "B3", "values": [
      {"measurement": "phosphorylated serine levels in NRAS (immunoblot)", "setting": "[1]", "value": "The upregulation of phosphorylated serine levels in NRAS was also diminished by overexpression of a kinase-dead STK19 K317P mutant"}
    ]}
  ]
}
